This assay deals with retromer endogenous in HeLa cells (detected through its subunit Vps35) (UniProt Q96QK1). The assay is described as follows: cell-based or functional assay.
retromer endogenous in HeLa cells (detected through its subunit Vps35), sequence (O75436 whole entry): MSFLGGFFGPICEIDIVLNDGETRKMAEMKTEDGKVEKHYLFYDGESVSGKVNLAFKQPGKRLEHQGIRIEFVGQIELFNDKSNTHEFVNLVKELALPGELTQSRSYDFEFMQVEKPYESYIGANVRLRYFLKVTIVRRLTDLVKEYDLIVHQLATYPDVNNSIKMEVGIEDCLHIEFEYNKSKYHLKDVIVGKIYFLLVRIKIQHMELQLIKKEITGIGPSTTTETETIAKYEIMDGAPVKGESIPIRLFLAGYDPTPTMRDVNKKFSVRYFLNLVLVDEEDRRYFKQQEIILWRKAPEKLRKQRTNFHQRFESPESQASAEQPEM

Substance “3R mutant HPV16 pseudovirus (L2 with three arginines in place of RKRRKR) (from UniProt P03101 1-505)” returned a Vps35/L1 PLA signal of 75 % reduction.

The values above are taken from patent US20210206811A1.
